The Kd is the equilibrium constant for the complex coming apart. High values mean a looser complex, low ones a tighter complex.

These results are taken from paper PMC10797690, “The SIRT3-ATAD3A axis regulates MAM dynamics and mitochondrial calcium homeostasis in cardiac hypertrophy” (International Journal of Biological Sciences, 2024).

The experiment has as its target T1, NAD+-dependent deacetylase Sirtuin 3 (SIRT3), protein used for SPR.
T1 chain: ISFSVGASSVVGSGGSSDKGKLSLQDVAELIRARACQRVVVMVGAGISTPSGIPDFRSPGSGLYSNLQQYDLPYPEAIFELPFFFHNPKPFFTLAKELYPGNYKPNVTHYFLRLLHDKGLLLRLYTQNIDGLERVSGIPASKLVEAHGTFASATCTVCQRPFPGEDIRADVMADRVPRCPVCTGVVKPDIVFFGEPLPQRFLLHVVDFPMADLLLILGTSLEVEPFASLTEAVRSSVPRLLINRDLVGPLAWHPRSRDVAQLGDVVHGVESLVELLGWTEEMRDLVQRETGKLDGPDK
Nature of the experiment: SPR; multicycle kinetics; which protein was immobilised is not told. The following applies: both partners purified. Background: SPR reads the build-up and loss of mass on a sensor chip optically.

B1: ATPase family AAA-domain containing protein 3A (ATAD3A), protein used for SPR (natural protein)
chain: SWLFGINKGPKGEGAGPPPPLPPAQPGAEGGGDRGLGDRPAPKDKWSNFDPTGLERAAKAARELEHSRYAKDALNLAQMQEQTLQLEQQSKLKEYEAAVEQLKSEQIRAQAEERRKTLSEETRQHQARAQYQDKLARQRYEDQLKQQQLLNEENLRKQEESVQKQEAMRRATVEREMELRHKNEMLRVEAEARARAKAERENADIIREQIRLKAAEHRQTVLESIRTAGTLFGEGFRAFVTDWDKVTATVAGLTLLAVGVYSAKNATLVAGRFIEARLGKPSLVRETSRITVLEALRHPIQVSRRLLSRPQDALEGVVLSPSLEARVRDIAIATRNTKKNRSLYRNILMYGPPGTGKTLFAKKLALHSGMDYAIMTGGDVAPMGREGVTAMHKLFDWANTSRRGLLLFVDEADAFLRKRATEKISEDLRATLNAFLYRTGQHSNKFMLVLASNQPEQFDWAINDRINEMVHFDLPGQEERERLVRMYFDKYVLKPATEGKQRLKLAQFDYGRKCSEVARLTEGMSGREIAQLAVSWQATAYASEDGVLTEAMMDTRVQDAVQQHQQKMCWLKAEGPGRGDEPSPS
Regarding B1, the Kd was determined as 50.9 nM.
